Publication PMC5768801, “The PII signaling protein from red algae represents an evolutionary link between cyanobacterial and Chloroplastida PII proteins” (Scientific Reports, 2018)

How the values were obtained:
PipX = test: Pull-down analysis of PipX binding to PII proteins; parameters: species or system Synechocystis sp. PCC 6803; conditions: 10 µM proteins, 1 mM ADP, Strep-Tactin column, Tricine-SDS-PAGE
From the text: In cyanobacteria, PipX is the second known receptor of PII signaling. We questioned whether red algal PII proteins have lost or retained the ability to bind to PipX. To test this possibility, we first analyzed complex formation using pull-down experiments (Supplementary Fig. S3A and B). The PII protein from Synechocystis sp. PCC 6803 (ScPII) was mixed with PipX in the presence of ADP and then the Strep-tagged PII was immobilized on the Strep-Tactin II column (Supplementary Fig. S3A). After extensive washes, the proteins were eluted with desthiobiotin and analyzed by Tricine-SDS-PAGE. Both proteins were detected in the elution. Thus, confirming previous studies[16]–[18], cyanobacterial PII was bound to PipX. When PpPII in the presence of PipX was immobilized on the column, no PipX signal was detected in the elution (Supplementary Fig. S3B).
For complex formation, the binding reactions were done in 300 μl of buffer (100 mM Tris HCl, pH 8.0, 150 mM NaCl, 1 mM EDTA) by adding 10 µM of purified proteins: His6-ScPipX and Strep-tag ScPII or Strep-tag PpPII. […] The eluted fractions were analyzed by Tricine-SDS PAGE[51] and stained with SimplyBlue™ SafeStain (Invitrogen).
(§1) Figure S3. […] Complex formation between PipX and ScPII (A) or PpPII (B) was assessed by pull-down. […] (C) Complex formation between PipX and PII proteins was assessed by SPR. […]

ScNAGK = biological target: T1, ScNAGK (Synechocystis sp., UniProt P73326); test: Coupled NAGK activity assay, ScNAGK; assay type: biochemical, Synechocystis sp. PCC 6803
T1 sequence (P73326 1-297): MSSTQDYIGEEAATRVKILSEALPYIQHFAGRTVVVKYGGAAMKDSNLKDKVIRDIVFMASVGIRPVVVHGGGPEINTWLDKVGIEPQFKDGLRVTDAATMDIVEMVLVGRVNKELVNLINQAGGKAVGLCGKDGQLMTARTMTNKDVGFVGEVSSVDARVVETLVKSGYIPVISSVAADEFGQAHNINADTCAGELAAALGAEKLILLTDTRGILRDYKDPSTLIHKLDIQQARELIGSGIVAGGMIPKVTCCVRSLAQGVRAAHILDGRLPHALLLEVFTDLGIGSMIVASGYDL
Method: The assess the activity of ScNAGK was measured with an enzyme assay, in which the ADP production was coupled to the NADH oxidation by the auxiliary enzymes pyruvate kinase and lactate dehydrogenase according to previously described procedure[32],[50]. […] The oxidation reaction of NADH was recorded for 10 min using spectrophotometer (SPECORD 210 PLUS, Analytik Jena AG) at 340 nm. […] The NADH molar absorption coefficient is 6178 L mol^−1 cm^−1 for at 340 nm, which was used for calculation. […] From the velocity slopes, the enzymatic constants Km, Kcat and IC50 were calculated using the Graph-Pad Prism software (GraphPad Software, USA).

ScPipX = test: SPR analysis of PipX binding to PII proteins; parameters: species or system Synechocystis sp. PCC 6803; conditions: His-tagged ScPipX immobilized, 200 nM PII protein, ADP
Method: Additionally, we assessed whether PpPII could bind to PipX by surface plasmon resonance (SPR) spectroscopy (Supplementary Fig. S3C). The N-terminally His-tagged ScPipX was immobilized on a Ni-HTG sensor chip and probed with ScPII together with effector molecule ADP. Interaction between PpPII and PipX was not observed.
SPR experiments were conducted using a ProteOn XPR36 system (Bio-Rad) in HBS buffer (10 mM HEPES, 150 mM NaCl, 1 mM MgCl2, and 0.005% Tween 20, pH 7.5) at 25 °C. Immobilization of ligand, 1 µM His6-PipX (200 µl), was performed on a Ni^+-loaded HTG sensor chip (Bio-Rad Laboratories) in the vertical orientation into the channel L2, and the continuous running buffer was used at a flow rate of 30 µl/min. The immobilization level was approximately 3000 resonance units (RU). […] The binding of PII proteins to PipX was recorded as a response signal difference of L2 and L1. All binding sensorgrams were collected, processed and analyzed using the integrated ProteOn Manager software (Bio-Rad Laboratories).
as §1

B1: PpPII: PII from the red alga Porphyra purpurea, recombinant Strep-tagged or His-tagged protein (protein)
chain: MKKIEAIIRPFKLNEVKLALVKGGIGGMTVVKVSGFGRQKGQTERYKGSEYSIDIIDKIKIEIIVSDDKVNSITEIIIKTAKTGEIGDGKIFISDVEQVIRIRTNDLNSAAL
modifications: left off: Strep-tag II, C-terminal, kept
notes: PII from the red alga Porphyra purpurea, recombinant Strep-tagged or His-tagged protein
PipX
  complex formation with PipX (pull-down): did not interact with PipX
ScNAGK; 50 mM NAG, 10 mM ATP, without glutamine
  raise of the IC50 for arginine on addition of PpPII to ScNAGK: approximately 4 fold
ScNAGK; PpPII-complexed versus free ScNAGK
  increase of the overall NAGK catalytic efficiency by complex formation with PpPII: about 4 fold
ScPipX
  interaction with PipX (SPR): not observed
